# B1: DGQ peptide (MtbXthA 104-113) (peptide)
# peptide: DGQPSWSGKP
# B2: YDV peptide (MtbXthA 75-83) (peptide)
# peptide: YDVAHVGFD
# B3: GST-tagged MtbXthA (enzyme)
# chain: MPDGTIDGGHPQRPASPRLRSPLLRLATWNVNSIRTRLDRVLDWLGRADVDVLAMQETKCPDGQFPALPLFELGYDVAHVGFDQWNGVAIASRVGLDDVRVGFDGQPSWSGKPEVAATTEARALGATCGGIRVWSLYVPNGRALDDPHYTYKLDWLAALRDTAEGWLRDDPAAPIALMGDWNIAPTDDDVWSTEFFAGCTHVSEPERKAFNAIVDAQFTDVVRPFTPGPGVYTYWDYTQLRFPKKQGMRIDFILGSPALAARVMDAQIVREERKGKAPSDHAPVLVDLHAG
# B4: BRCT domain of MtbLigA, His-tagged (domain or fragment)
# chain: SVPRTLAGLTIVVTGSLTGFSRDDAKEAIVARGGKAAGSVSKKTNYVVAGDSPGSKYDKAVELGVPILDEDGFRRLLADGPASRT
# What was measured:
# [1] = target: B4; assay: ITC
# [2] = target: Full-length His-tagged MtbLigA (M. tuberculosis, UniProt P9WNV1 1-691); assay: SPR
# [3] = target: B3; assay: SPR
Binder,Kd [1],also measured
B1,2.47 µM,–
B2,88.5 µM,–
B3,–,Kd [2]: 0.0677 µM
B4,–,Kd [3]: 0.0714 µM
